Legend:
[1] = target: T1, histidine tagged hRGMc (human, UniProt Q6ZVN8 36-400); assay: MSD-SET, full-length antibody against human RGMc-his
T1 construct: also called human RGMc-his; not shown: histidine tag
T1 sequence: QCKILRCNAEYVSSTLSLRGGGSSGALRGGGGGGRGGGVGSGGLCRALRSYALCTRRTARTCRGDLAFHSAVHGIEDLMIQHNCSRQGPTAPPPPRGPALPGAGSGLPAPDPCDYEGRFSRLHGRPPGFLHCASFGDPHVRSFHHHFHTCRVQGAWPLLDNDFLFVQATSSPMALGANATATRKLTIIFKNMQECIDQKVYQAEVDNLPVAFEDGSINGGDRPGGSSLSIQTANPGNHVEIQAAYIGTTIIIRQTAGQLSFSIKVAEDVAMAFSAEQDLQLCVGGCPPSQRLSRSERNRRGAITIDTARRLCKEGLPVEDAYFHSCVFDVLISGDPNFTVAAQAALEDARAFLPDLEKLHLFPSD
Experimental: The titration was then added to a pre-coated plate with a capture antibody (pre-labeled with an NHS-sulfotag) that depletes any free antigen from solution. After a 150 second incubation, the plate was washed 3 times and an SA-sulfotag reagent was added and incubated for 3 min. After additional washes the plate was read on a MesoQuickPlex SQ120.
A similar MSD-SET assay was performed with the full-length antibodies against the human RGMc-his antigen to determine binding affinity (KD)).

[2] = target: T2, recombinant, soluble human RGMc fused to an Fc (human, UniProt Q6ZVN8 36-400, limits assumed); assay: cell-based or functional assay
T2 sequence: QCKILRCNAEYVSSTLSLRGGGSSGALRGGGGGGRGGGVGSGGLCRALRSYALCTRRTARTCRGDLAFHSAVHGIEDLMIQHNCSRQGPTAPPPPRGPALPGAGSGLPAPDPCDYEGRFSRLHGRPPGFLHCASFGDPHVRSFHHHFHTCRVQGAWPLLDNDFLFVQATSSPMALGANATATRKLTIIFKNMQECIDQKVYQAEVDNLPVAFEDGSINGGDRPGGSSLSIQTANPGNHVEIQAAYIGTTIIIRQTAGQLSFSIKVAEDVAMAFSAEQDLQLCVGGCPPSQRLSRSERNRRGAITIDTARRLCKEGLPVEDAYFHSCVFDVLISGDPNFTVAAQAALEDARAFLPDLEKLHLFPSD

[3] = target: T3, histidine tagged hRGMa (human, UniProt Q96B86 46-425, limits assumed); assay: Octet (BLI), antibody on AHC biosensor, his-tagged hRGMa in solution (concentrations from paragraph 460)
T3 construct: also called RGMa-his; not shown: histidine tag
T3 sequence: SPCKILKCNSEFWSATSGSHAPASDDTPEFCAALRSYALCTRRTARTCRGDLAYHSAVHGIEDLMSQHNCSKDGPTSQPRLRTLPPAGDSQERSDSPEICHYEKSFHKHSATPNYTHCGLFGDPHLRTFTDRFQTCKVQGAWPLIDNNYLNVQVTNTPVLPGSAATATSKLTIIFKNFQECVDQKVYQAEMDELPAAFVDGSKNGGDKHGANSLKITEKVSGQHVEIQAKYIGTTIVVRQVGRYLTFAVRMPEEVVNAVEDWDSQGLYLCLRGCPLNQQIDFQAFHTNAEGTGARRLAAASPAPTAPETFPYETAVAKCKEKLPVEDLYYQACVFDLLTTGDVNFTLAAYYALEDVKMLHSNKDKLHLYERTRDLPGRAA
Experimental: (§1) Antibodies that are selective for RGMc were generated using known techniques as describe herein. RGMc specificity over RGMa and RGMb was verified using an in vitro binding assay (i.e., Octet®). […] After loading, a baseline reading was obtained by placing the tips into 1× Kinetics Buffer before calculating the on rate, or association, of the antibodies by presenting them to histidine tagged hRGMc, hRGMa, or hRGMb, at varying concentrations (900 nM, 300 nM, 100 nM, and 33 nM). After reaching binding saturation, a dissociation step was performed to calculate the off rate by moving the tips back into 1× Kinetics Buffer. The rate of binding and dissociation can then be used to calculate the KD, or binding affinity of each antibody to the main target (RGMc) while ensuring no cross binding to RGM family members (RGMa and RGMb).

[4] = target: T4, histidine tagged hRGMb (human, UniProt Q6NW40 46-413); assay: Octet (BLI), antibody on AHC biosensor, his-tagged hRGMb in solution (concentrations from paragraph 460)
T4 construct: not shown: histidine tag
T4 sequence: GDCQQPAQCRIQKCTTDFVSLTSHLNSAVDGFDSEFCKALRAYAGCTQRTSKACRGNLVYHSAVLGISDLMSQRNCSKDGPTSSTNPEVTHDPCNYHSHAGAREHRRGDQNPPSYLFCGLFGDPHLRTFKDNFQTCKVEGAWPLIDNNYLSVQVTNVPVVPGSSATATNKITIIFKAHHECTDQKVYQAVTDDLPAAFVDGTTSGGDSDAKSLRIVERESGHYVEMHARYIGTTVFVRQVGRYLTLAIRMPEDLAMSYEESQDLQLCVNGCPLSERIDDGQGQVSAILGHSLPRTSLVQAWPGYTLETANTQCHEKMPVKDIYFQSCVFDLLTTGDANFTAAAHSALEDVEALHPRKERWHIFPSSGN
Experimental: as §1

[5] = target: T2, recombinant, soluble human RGMc fused …; assay: cell-based or functional assay; remark: listed apart in the source

B1: SR-RC-AB9 (antibody, V domains shown)
VH: QVQLVQSGAEVKKPGSSVKVSCKASGGTFSSYSIQWVRQAPGQGLEWMGGIIPIFGVASYAQKFQGRVTITADESTSTAYMELSSLRSEDTAVYYCARGAIAATYGLGMDVWGQGTTVTVSS
VL: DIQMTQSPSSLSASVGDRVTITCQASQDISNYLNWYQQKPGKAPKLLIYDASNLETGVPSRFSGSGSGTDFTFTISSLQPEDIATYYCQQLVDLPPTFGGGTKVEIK
notes: Tested as a full-length antibody
In the case of B1, the Kd [1] is reported as 24 pM and the “EC50 (ug/mL), BMP activity assay” value [2] is reported as 3.45 µg/mL.

B2: SR-RC-AB7 (antibody, V domains shown)
VH: QVQLVQSGAEVKKPGSSVRVSCKASGGTFSSYAIQWVRQAPGQGLEWMGGIIPIFGVASYAQKFQGRVTITADESTSTAYMELSSLRSEDTAVYYCARGAIVATYGLGMDVWGQGTTVTVSS
VL: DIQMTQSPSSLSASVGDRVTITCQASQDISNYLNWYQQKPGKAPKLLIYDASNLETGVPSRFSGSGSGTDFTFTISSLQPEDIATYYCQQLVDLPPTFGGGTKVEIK
notes: as for B1
For B2, the Kd [1] was 21 pM and the “EC50 (ug/mL), BMP activity assay” value [2] was 3.87 µg/mL.

B3: SR-RC-AB8 (antibody, human IgG4, V domains shown)
VH: QVQLVQSGAEVKKPGSSVKVSCKASGGTFRSYSISWVRQAPGQGLEWMGGIIPIFGVANYAQKFQGRVTITADESTSTAYMELSSLRSEDTAVYYCARGAYEATYGLGMDVWGQGTTVTVSS
VL: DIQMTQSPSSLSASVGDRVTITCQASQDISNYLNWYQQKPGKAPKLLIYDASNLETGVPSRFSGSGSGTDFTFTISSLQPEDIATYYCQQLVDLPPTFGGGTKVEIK
With B3 the Kd [1] was 39 pM and the “EC50 (ug/mL), BMP activity assay” value [2] was 3.63 µg/mL.

B4: SR-RC-AB3 (antibody, V domains shown)
VH: QVQLVQSGAEVKKPGSSVKVSCKASGGTFSSYAISWVRQAPGQGLEWMGGIIPIFGTANYAQKFQGRVTITADESTSTAYMELSSLRSEDTAVYYCARGAIAATYGLGMDVWGQGTTVTVSS
VL: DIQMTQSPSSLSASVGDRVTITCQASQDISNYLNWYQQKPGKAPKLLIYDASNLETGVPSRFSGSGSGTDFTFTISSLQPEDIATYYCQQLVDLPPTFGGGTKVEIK
notes: Tested as a full-length antibody, captured by anti-human IgG Fc sensors; also called parental antibody
With B4 the binding result [3] was “no binding (tested: 900 nM)”, the Kd [1] was 4300 pM and the binding result [4] was “no binding (tested: 900 nM)”. The “EC50 in the BRE reporter assay (BMP6 reporter activity, luciferase RLU)” value [5] was 6830 pM and the “EC50 (ug/mL), BMP activity assay” value [2] was 4.83 µg/mL.

From patent US20210380669A1 (SCHOLAR ROCK, published 2021)
